Biological target: FLAG-tagged CRTC3 S391A (mouse) (UniProt Q91X84)
UniProt Q91X84, sequence (Q91X84 whole entry S391A): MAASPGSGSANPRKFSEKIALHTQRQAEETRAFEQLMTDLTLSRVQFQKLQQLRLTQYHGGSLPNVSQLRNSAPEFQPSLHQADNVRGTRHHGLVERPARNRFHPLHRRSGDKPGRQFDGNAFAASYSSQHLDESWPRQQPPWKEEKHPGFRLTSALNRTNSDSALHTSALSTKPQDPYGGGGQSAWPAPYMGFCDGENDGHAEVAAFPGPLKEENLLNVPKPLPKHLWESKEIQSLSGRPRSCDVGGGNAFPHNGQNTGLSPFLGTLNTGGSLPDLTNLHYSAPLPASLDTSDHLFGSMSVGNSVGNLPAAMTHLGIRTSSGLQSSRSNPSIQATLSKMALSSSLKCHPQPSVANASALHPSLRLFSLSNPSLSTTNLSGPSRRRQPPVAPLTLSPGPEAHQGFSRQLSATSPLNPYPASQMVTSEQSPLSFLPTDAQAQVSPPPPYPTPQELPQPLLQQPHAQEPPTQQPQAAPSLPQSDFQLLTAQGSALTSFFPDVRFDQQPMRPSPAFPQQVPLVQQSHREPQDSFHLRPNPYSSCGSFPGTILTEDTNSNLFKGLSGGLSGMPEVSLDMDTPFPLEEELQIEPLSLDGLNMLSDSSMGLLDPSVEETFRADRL

transient CRE luciferase-based (EVX-Luc) reporter assay, basal transcriptional activity of S391A mutant CRTC3 against WT CRTC3: 2 fold lower
Substance: B55 PP2A holoenzyme (protein phosphatase 2A: catalytic, scaffold and 55-kDa regulatory B subunits) (from UniProt P67775 1-309; P30153 1-589; P63151 1-447) (complex)

— paper PMC6317279
